For assay [1], the target named is MCP-1 receptor B (CCR2B) (human) (UniProt P41597). Kind of assay: competition with 100 pM 125I-MCP-1 on CHO-CCR2B membranes, filtration; at least 2 assays.
Assay [2] shares this target. Kind of assay: competition with 100 pM 125I-MCP-1 on CHO-CCR2B membranes, filtration; mean of 8 assays.
The target is the same in assay [3]. Put plainly: cell-based or functional assay.
The target is the same in assay [4]. Kind of assay: competition with 100 pM 125I-MCP-1 on CHO-CCR2B membranes, filtration; mean of 18 assays.
The target is the same in assay [5]. Put plainly: cold competition of unlabelled MCP-1 against 100 pM 125I-MCP-1 on CHO-CCR2B membranes.
For assay [6] the target is unchanged. Kind of assay: equilibrium binding of 125I-MCP-1 to CHO-CCR2B membranes.

Data on seven substances can be found in patent US6383782.

The IC50 is the concentration at which inhibition is half-maximal. High values mean lower potency, low ones higher potency. A word on the Kd: it is the constant that tells how readily two partners part at equilibrium.

In turn, “Met-MCP1(9-76) (SEQ ID NO: 31) (from UniProt P13500 32-99) (ligand)” had an IC50 in assay [1] of 3.2 nM.

In turn, “[V9T]MCP1(9-76) (SEQ ID NO: 29) (from UniProt P13500 33-99) (ligand)” gave a concentration for half-maximal inhibition (IC50) in assay [2] of 2 nM. The same substance gave a Chemotaxis (IC50), THP-1 cells, 1 nM MCP-1 in assay [3] of 21 nM.

Turning to “MCP1(9-76) (SEQ ID NO: 30) (from UniProt P13500 32-99) (ligand)”, in assay [3], the Calcium flux (IC50), THP-1 cells came to 45 nM and the Chemotaxis (IC50), THP-1 cells, 1 nM MCP-1 was found to be 12 nM. The half-maximal inhibitory concentration (IC50) in assay [4] was 1.9 nM.

“[V9A]MCP1(9-76) (SEQ ID NO: 9) (from UniProt P13500 33-99) (ligand)”: in assay [3], the Calcium flux (IC50), THP-1 cells worked out at 109 nM and the Chemotaxis (IC50), THP-1 cells, 1 nM MCP-1 came out at 23 nM. This substance also had an IC50 in assay [4] of 2.5 nM.

On to “[V9G]MCP1(9-76) (SEQ ID NO: 26) (from UniProt P13500 33-99) (ligand)”, for which the half-maximal inhibitory concentration (IC50) in assay [2] is 3.2 nM. Moreover, the Chemotaxis (IC50), THP-1 cells, 1 nM MCP-1 in assay [3] amounted to 10.9 nM.

The substance “Monocyte Chemoattractant Protein-1 (MCP-1) (from UniProt P13500 24-99) (ligand)” yielded an IC50 in assay [5] of 0.11 nM. The substance further came in with a rise in [Ca2+]i in THP-1 cells (EC50) in assay [3] of 2 nM. Also, the Kd in assay [6] turned out to be 0.12 nM.

Regarding “pGlu-MCP1(9-76) (SEQ ID NO: 32) (from UniProt P13500 32-99) (ligand)”, the Calcium flux (IC50), THP-1 cells in assay [3] came out at 117 nM. This substance showed an IC50 in assay [1] of 2.6 nM.
